Data on two substances can be found in article PMC6769508.

“And” between values parts separate entries of the source, which are not always exact repeats. Identical values can stand only once.

The target in experiment [1] is TeSasA, T. elongatus SasA (wild type, full-length) (Thermosynechococcus elongatus). Put plainly: native MS; TeSasA or TeSasAN alone; 150 mM ammonium acetate, pH 6.8.
The target of experiment [2] is TeKaiCDD, T. elongatus KaiC mutant with Ser431 and Thr432 substituted by aspartate residues (Thermosynechococcus elongatus) (UniProt Q79V60). Put plainly: native MS; TeKaiCDD (20 µM) titrated with KaiB or SasA proteins, incubated at 37 °C for 6 h, buffer-exchanged into 150 mM ammonium acetate, pH 6.8; nanoflow ESI.
Sequence of TeKaiCDD, T. elongatus KaiC mutant with Ser431 and Thr432 substituted by aspartate residues (Thermosynechococcus elongatus) (Q79V60 other isoform, or with tags, fused parts or gaps mutant): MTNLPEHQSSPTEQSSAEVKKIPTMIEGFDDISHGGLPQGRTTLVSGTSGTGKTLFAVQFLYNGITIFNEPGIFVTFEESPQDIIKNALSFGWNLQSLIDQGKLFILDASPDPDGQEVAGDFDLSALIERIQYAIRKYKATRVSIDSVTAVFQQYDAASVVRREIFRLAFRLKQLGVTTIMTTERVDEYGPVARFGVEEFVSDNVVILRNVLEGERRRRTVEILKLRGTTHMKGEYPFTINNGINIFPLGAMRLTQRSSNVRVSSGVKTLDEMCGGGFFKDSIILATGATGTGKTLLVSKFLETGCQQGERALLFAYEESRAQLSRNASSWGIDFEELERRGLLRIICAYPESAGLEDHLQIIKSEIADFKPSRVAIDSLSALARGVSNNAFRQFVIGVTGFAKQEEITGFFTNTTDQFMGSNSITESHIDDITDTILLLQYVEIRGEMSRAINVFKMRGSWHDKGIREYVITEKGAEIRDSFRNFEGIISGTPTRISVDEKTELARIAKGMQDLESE

As usually defined, the stoichiometry N is a count of units in the complex or per binding partner. “TeSasA, T. elongatus SasA (wild type, full-length) (natural protein)” displayed a stoichiometry N in experiment [1] of 2. The stoichiometry N (binder chains per KaiC hexamer) in experiment [2] was 2 and 4 and 6. For “TeSasAN, the N-terminal domain of T. elongatus SasA (domain or fragment)”, in experiment [2], the stoichiometry N (binder chains per KaiC hexamer) is 2 and 3 and 4.
